The target in experiment [1] is T1, mouse SIRPA variant hmSIRPA_Δ0 (mouse (with human residues), UniProt P97797 35-513).
T1 construct: FLAG-tagged (pFLAG V5-DEST), on 293α cells
T1 chain: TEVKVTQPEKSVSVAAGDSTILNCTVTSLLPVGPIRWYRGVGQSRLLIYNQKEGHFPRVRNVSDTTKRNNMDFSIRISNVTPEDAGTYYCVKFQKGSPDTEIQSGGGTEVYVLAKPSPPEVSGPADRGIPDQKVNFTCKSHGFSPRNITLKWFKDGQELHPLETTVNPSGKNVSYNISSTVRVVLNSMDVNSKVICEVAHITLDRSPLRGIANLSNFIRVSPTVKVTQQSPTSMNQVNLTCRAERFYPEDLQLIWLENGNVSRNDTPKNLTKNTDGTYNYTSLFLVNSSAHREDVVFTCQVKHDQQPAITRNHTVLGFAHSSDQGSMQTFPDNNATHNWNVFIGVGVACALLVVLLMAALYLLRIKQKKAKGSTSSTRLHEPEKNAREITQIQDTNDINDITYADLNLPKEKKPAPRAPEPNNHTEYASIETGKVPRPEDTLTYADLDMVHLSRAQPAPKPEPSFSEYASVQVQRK
Kind of experiment: cell-based ELISA on 293α cells expressing FLAG-tagged hmSIRPA_Δ0; Abs 490 normalized to FLAG tag [i]. How it is done:
(§1) After the culture supernatant of 293α cells into which the pFLAG V5-DEST-hmSIRPA_Δ0, Δ1, and Δ2 expression vector prepared in 2)-1-2-2 was introduced and the pFLAG V5-DEST-introduced 293α cells was removed, 50 μL per well of four different D13 humanized anti-human SIRPA antibodies and a chimeric anti-human SIRPA antibody diluted with 5% FBS-containing PBS to a final concentration of 10,000 ng/mL were added to these cells, and the mixture was allowed to stand at 4° C. for one hour. Further, 50 μL per well of an anti-FLAG M2 antibody (SIGMA) diluted with 5% FBS-containing PBS to a final concentration of 10,000 ng/mL was added to a well for detecting expression of each SIRPA construct, and the mixture was allowed to stand at 4° C. for one hour. Thereafter, binding to each construct was evaluated in the same manner as in the evaluation of the binding activity of the human SIRPA. Binding of anti-human SIRPA antibodies to each construct was standardized by expression of the FLAG tag.

For experiment [2], the target named is T2, mouse SIRPA variant hmSIRPA_Δ1 (mouse (with human residues), UniProt P97797 35-513).
T2 construct: FLAG-tagged (pFLAG V5-DEST), on 293α cells
T2 chain: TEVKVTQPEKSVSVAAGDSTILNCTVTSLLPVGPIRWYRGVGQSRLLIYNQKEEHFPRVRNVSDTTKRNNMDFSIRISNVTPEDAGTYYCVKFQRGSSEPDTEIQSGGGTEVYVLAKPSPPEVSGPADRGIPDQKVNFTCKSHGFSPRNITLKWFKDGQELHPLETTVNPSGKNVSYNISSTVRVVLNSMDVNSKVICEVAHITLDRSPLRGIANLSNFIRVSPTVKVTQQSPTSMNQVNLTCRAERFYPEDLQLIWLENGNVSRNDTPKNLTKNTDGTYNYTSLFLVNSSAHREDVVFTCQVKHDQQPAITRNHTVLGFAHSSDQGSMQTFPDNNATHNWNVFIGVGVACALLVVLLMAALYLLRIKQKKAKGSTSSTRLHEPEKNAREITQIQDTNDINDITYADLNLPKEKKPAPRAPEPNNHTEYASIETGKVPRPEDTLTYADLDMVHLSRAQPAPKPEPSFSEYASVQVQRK
The experiment is described as follows: cell-based ELISA on 293α cells expressing FLAG-tagged hmSIRPA_Δ1; Abs 490 normalized to FLAG tag [ii]. On the procedure: as §1
A general note: ELISA stands for enzyme-linked immunosorbent assay.

Another experiment deals with T3, mouse SIRPA BALB/c (mouse (BALB/c), UniProt P97797 35-513).
T3 construct: FLAG-tagged (pFLAG V5-DEST), on 293α cells
T3 chain: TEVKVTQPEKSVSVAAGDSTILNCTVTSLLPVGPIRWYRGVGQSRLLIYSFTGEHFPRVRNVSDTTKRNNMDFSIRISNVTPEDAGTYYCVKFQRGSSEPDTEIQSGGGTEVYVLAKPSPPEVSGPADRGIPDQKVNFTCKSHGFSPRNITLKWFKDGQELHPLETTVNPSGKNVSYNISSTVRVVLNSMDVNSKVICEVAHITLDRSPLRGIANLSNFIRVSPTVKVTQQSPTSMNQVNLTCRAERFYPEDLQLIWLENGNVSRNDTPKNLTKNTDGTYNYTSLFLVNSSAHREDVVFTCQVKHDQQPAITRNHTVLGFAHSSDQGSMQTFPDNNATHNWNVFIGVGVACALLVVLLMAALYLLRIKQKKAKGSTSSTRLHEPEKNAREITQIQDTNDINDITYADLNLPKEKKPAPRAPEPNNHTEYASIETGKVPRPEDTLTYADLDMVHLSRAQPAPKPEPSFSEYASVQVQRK
Kind of experiment: cell-based ELISA on 293α cells expressing FLAG-tagged mouse SIRPA (BALB/c); Abs 490 normalized to FLAG tag [ii]. On the procedure: (§2) The 293a cells, described in Example 1)-6, were prepared at 5× 10⁵ cells/mL in a 10% FBS-containing DMEM medium. pFLAG V5-DEST-SIRPA_V1-V10, pFLAG V5-DEST-monkey SIRPA, pFLAG V5-DEST-mouse SIRPA, or pFLAG V5-DEST was introduced into the cells using Lipofectamine LTX (Invitrogen), and 100 μL each was aliquoted to a 96-well plate (Corning Incorporated) and cultured overnight in a 10% FBS-containing DMEM medium at 37° C. under a 5% CO₂ condition. The obtained introduced cells were used for cell-based ELISA in a state that they adhered. After the culture supernatant was removed, 50 μL per well of hD13_HIL3, hD13_HIL4h, hD13_H2L2, hD13_H2L3, or cD13 prepared in Examples 6 and 7 or a control antibody was added to each of various SIRPA genes-introduced cells at a final concentration of 0 to 10,000 ng/ml, and the mixture was allowed to stand at 4° C. for one hour. Thereafter, binding to human SIRPA was evaluated in the same manner as in Example 5-1.

The next experiment concerns the target T4, human SIRPA_V7 (human, UniProt P78324 31-504).
T4 construct: FLAG-tagged (pFLAG V5-DEST), on 293α cells; also called human SIRPA Variant 7
The experiment is described as follows: cell-based ELISA on 293α cells expressing FLAG-tagged SIRPA_V7; Abs 490 normalized to FLAG tag [iii]. How it is done: as §2

The next experiment addresses T5, human SIRPA_V1 protein (human, UniProt P78324 31-504).
T5 construct: Expressed on 293α cells from pcDNA3.2 V5-DEST or pFLAG V5-DEST (FLAG-tagged) vectors; also called human SIRPA Variant 1; hSIRPA V1
Kind of experiment: cell-based ELISA on 293α cells expressing FLAG-tagged SIRPA_V1; Abs 490 normalized to FLAG tag [i]. How it is done:
as §2

T5 sequence (P78324 31-504 limits assumed): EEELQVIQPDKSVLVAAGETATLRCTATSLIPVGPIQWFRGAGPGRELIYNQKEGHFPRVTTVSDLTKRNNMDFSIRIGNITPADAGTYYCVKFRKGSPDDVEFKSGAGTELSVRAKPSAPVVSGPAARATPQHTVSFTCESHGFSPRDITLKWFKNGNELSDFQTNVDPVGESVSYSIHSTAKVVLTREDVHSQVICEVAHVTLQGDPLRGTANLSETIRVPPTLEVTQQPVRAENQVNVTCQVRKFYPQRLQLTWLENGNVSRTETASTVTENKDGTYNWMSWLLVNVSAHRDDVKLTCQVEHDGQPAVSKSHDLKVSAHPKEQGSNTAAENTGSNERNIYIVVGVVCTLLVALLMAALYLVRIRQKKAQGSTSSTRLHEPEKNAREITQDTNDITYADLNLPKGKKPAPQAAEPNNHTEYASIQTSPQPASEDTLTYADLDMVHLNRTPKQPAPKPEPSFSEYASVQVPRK
T4 sequence (P78324 other isoform, or with tags, fused parts or gaps limits assumed): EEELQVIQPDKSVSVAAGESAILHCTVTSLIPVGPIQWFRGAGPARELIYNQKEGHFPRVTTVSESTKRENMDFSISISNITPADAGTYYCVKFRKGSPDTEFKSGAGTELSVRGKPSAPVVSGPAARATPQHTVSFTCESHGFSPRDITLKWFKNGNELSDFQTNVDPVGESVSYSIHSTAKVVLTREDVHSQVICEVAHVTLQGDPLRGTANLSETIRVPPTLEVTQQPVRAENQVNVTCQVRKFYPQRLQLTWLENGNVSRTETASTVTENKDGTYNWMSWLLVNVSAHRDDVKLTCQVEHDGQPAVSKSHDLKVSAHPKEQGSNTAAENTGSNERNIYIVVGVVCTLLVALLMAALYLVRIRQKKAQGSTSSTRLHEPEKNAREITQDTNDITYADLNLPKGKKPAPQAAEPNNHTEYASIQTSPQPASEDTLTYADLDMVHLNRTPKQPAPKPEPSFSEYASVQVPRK

B1: human chimeric anti-SIRPA antibody cD13 (antibody, human IgG4 S228P, kappa, F234A L235A, V domains shown)
VH: EVQLVESGGGLVQPGRSLKLSCLASGFTFSDYGMIWVRQAPGKGLEWVASISSSSSYIYYADTVKGRFTISRENAKNTLFLHMTSLRSEDTALYYCARRYYGFNYPFDYWGQGVMVTVSS
VL: DTVLTQSPALAVSLGQRVTISCGASKSVRTYMHWYQQKSGQQPKLLIYSASNLEAGVPSRFSGSGSGTDFTLTIDPVEADDIANYYCQQSNEPPYTFGAGTKLELKR
notes: Human IgG4proFALA heavy chain, human kappa light chain; also called cD13 (IgG4pf); human chimeric antibody D13
As usually defined, the EC50 (read off the curve) is the concentration giving half of the maximal effect. As for B1, the binding result in experiment [1] is “binds”; in experiment [2], “no binding (tested: 10000 ng/mL)”; with mouse SIRPA BALB/c, “no binding (tested: 10000 ng/mL)”. In addition, the figures for the 50% effective concentration (EC50 (read off the curve)) with human SIRPA_V7 and with human SIRPA_V1 protein were roughly 0.04 µg/mL and roughly 0.05 µg/mL, respectively.

B2: humanized anti-SIRPA antibody hD13_H1L3 (antibody, human IgG4 S228P, kappa, F234A L235A, V domains shown)
VH: QVQLVESGGGVVQPGRSLRLSCAASGFTFSDYGMIWVRQAPGKGLEWVASISSSSSYIYYADSVKGRFTISRDNSKNRLYLQMNSLRAEDTAVYYCARRYYGFNYPFDYWGQGTMVTVSS
VL: DTQLTQSPSSLSASVGQRVTITCGASKSVRTYMHWYQQKPGKQPKLLIYSASNLEAGVPSRFSGSGSGTDFTLTISSLQPEDFATYYCQQSNEPPYTFGQGTKLEIKR
notes: hH1 heavy chain (IgG4proFALA) and hL3 kappa light chain; also called hD13_HIL3; HIL3 antibody
With B2, the figures for the binding result (in experiment [1]; in experiment [2]; in the experiment with mouse SIRPA BALB/c) were “binds”, “no binding (tested: 10000 ng/mL)” and “no binding (tested: 10000 ng/mL)”, respectively. Besides, the 50% effective concentration (EC50 (read off the curve)) with human SIRPA_V7 and in the experiment with human SIRPA_V1 protein was roughly 0.04 µg/mL each time.

B3: humanized anti-SIRPA antibody hD13_H2L3 (antibody, human IgG4 S228P, kappa, F234A L235A, V domains shown)
VH: EVQLVESGGGVVQPGRSLRLSCAASGFTFSDYGMIWVRQAPGKGLEWVASISSSSSYIYYADSVKGRFTISRDNSKNTLYLQMNSLRAEDTAVYYCARRYYGFNYPFDYWGQGTMVTVSS
VL: DTQLTQSPSSLSASVGQRVTITCGASKSVRTYMHWYQQKPGKQPKLLIYSASNLEAGVPSRFSGSGSGTDFTLTISSLQPEDFATYYCQQSNEPPYTFGQGTKLEIKR
notes: hH2 heavy chain (IgG4proFALA) and hL3 kappa light chain; also called H2L3 antibody
As to B3, the results for the binding result (in experiment [1]; in experiment [2]; in the experiment with mouse SIRPA BALB/c) were “binds”, “no binding (tested: 10000 ng/mL)” and “no binding (tested: 10000 ng/mL)”, respectively. For the same molecule, the “EC50 (read off the curve)” value with human SIRPA_V7 was roughly 0.04 µg/mL; with human SIRPA_V1 protein, roughly 0.05 µg/mL.

B4: humanized anti-SIRPA antibody hD13_H2L2 (antibody, human IgG4 S228P, kappa, F234A L235A, V domains shown)
VH: EVQLVESGGGVVQPGRSLRLSCAASGFTFSDYGMIWVRQAPGKGLEWVASISSSSSYIYYADSVKGRFTISRDNSKNTLYLQMNSLRAEDTAVYYCARRYYGFNYPFDYWGQGTMVTVSS
VL: AIQLTQSPSSLSASVGQRVTITCGASKSVRTYMHWYQQKPGKAPKLLIYSASNLEAGVPSRFSGSGSGTDFTLTISSLQPEDFATYYCQQSNEPPYTFGQGTKLEIKR
notes: hH2 heavy chain (IgG4proFALA) and hL2 kappa light chain; also called H2L2 antibody
In the case of B4, the binding result in experiment [1] is “binds”; in experiment [2], “no binding (tested: 10000 ng/mL)”; in the experiment with mouse SIRPA BALB/c, “no binding (tested: 10000 ng/mL)”. The concentration for a half-maximal effect (EC50 (read off the curve)) in the experiment with human SIRPA_V7 and with human SIRPA_V1 protein was roughly 0.04 µg/mL in each case.

B5: humanized anti-SIRPA antibody hD13_H1L4 (antibody, human IgG4 S228P, kappa, F234A L235A, V domains shown)
VH: QVQLVESGGGVVQPGRSLRLSCAASGFTFSDYGMIWVRQAPGKGLEWVASISSSSSYIYYADSVKGRFTISRDNSKNRLYLQMNSLRAEDTAVYYCARRYYGFNYPFDYWGQGTMVTVSS
VL: DTVLTQSPDSLAVSLGQRATINCGASKSVRTYMHWYQQKPGQQPKLLIYSASNLEAGVPSRFSGSGSGTDFTLTISSLQAEDVAVYYCQQSNEPPYTFGQGTKVEIKR
notes: hH1 heavy chain (IgG4proFALA) and hL4 kappa light chain; also called hD13_HIL4; hD13_HIL4h
Consider B5, for which the figures for the binding result (in experiment [1]; in experiment [2]; with mouse SIRPA BALB/c) were “binds”, “no binding (tested: 10000 ng/mL)” and “no binding (tested: 10000 ng/mL)”, respectively. Moreover, the concentration for a half-maximal effect (EC50 (read off the curve)) with human SIRPA_V7 and with human SIRPA_V1 protein was roughly 0.04 µg/mL each time.

For the origin of these results see US20260098102A1 (NATIONAL UNIVERSITY CORPORATION KOBE UNIVERSITY, published 2026).
